# Assay results from patent publication US20190233475A1 (Bicycle, published 2019).
# *1 amine or outer side, *2 acyl side, *3 side chain or, on linkers, in order; H or OH if unused. Bridges are numbered along the chain shown (N, C = ends). Where no end group is shown, it is not given here. [ ]: non-standard residue; d: D form. TBMB = c1c(C[*:1])cc(C[*:3])cc1C[*:2]; NMeR = CN[C@@H](CCCNC(=N)N)C(=O)O; hArg = N=C(N)NCCCC[C@H](N)C(=O)O; Aze = O=C(O)[C@@H]1CCN1
# B1: Ac-(06-550) Aze3 NMe-Arg5 (peptide)
# peptide: Ac-CSF[Aze]Y[NMeR]CVYYPDIC-NH2
# modifications: linker 1-7-14 via TBMB
# notes: Synthetic bicyclic peptide, 5 x 6, made on Rink amide resin
# B2: Ac-(06-259-02) (peptide)
# peptide: Ac-CNTWNPWCPWDAPLC-NH2
# modifications: linker 1-8-15 via TBMB
# notes: Synthetic bicyclic peptide without the terminal alanines, made on Rink amide resin
# B3: Ac-(06-550) HArg5 (peptide)
# peptide: Ac-CSFPY[hArg]CVYYPDIC-NH2
# modifications: linker 1-7-14 via TBMB
# notes: as for B1
# B4: Ac-(06-550) Aze3 HArg5 (peptide)
# peptide: Ac-CSF[Aze]Y[hArg]CVYYPDIC-NH2
# modifications: linker 1-7-14 via TBMB
# notes: as for B1
# B5: Ac-(06-550) NMe-Arg5 (peptide)
# peptide: Ac-CSFPY[NMeR]CVYYPDIC-NH2
# modifications: linker 1-7-14 via TBMB
# notes: as for B1
# B6: 06-254-E3 (peptide)
# peptide: CKNYWNPCDLVHDIC
# modifications: linker 1-8-15 via TBMB
# B7: 06-259-H4 (peptide)
# peptide: CNHWNPWCSSDPPVC
# modifications: linker 1-8-15 via TBMB
# B8: 06-259-F2 (peptide)
# peptide: CNTWNPWCSWPDIDC
# modifications: linker 1-8-15 via TBMB
# B9: 06-254-G2 (peptide)
# peptide: CKNYWNPCDLIGITC
# modifications: linker 1-8-15 via TBMB
# B10: 06-254-02 (phage clone) (peptide)
# peptide: CKNYWNPCDLIPGPC
# modifications: linker 1-8-15 via TBMB
# B11: 06-259-03 (phage clone) (peptide)
# peptide: CNHWNPWCSADPPIC
# modifications: linker 1-8-15 via TBMB
# B12: 06-259-F1 (peptide)
# peptide: CNHWNPWCSADPPRC
# modifications: linker 1-8-15 via TBMB
# B13: 06-254-F5 (peptide)
# peptide: CKNYWNPCDLIPDLC
# modifications: linker 1-8-15 via TBMB
# B14: 06-254-H3 (peptide)
# peptide: CKNYWNPCDLIADLC
# modifications: linker 1-8-15 via TBMB
# B15: 06-254-D6 (peptide)
# peptide: CKNYWNPCDLIPDMC
# modifications: linker 1-8-15 via TBMB
# B16: 06-254-B1 (peptide)
# peptide: CKNYWNPCDLLPDLC
# modifications: linker 1-8-15 via TBMB
# B17: 06-259-01 (phage clone) (peptide)
# peptide: CNHWNPWCSVEPPVC
# modifications: linker 1-8-15 via TBMB
# B18: 06-254-G4 (peptide)
# peptide: CKNYWNPCDLVEAQC
# modifications: linker 1-8-15 via TBMB
# B19: 06-254-E5 (peptide)
# peptide: CKNYWNPCDLLESTC
# modifications: linker 1-8-15 via TBMB
# B20: 06-254-E6 (peptide)
# peptide: CKNYWNPCGLVYSTC
# modifications: linker 1-8-15 via TBMB
# B21: 06-259-E2 (peptide)
# peptide: CNHWNPWCPADIPVC
# modifications: linker 1-8-15 via TBMB
# B22: 06-254-B9 (peptide)
# peptide: CKNYWNPCDLLGIAC
# modifications: linker 1-8-15 via TBMB
# B23: 06-254 parent (peptide)
# peptide: CKNYWNPCDLVTISC
# modifications: linker 1-8-15 via TBMB
# notes: also called 06-254 (phage clone)
# B24: 06-254-03 (phage clone) (peptide)
# peptide: CKNYWNPCDLVMDTC
# modifications: linker 1-8-15 via TBMB
# B25: 06-259-02 (phage clone) (peptide)
# peptide: CNTWNPWCPWDAPLC
# modifications: linker 1-8-15 via TBMB
# B26: 06-254-01 (phage clone) (peptide)
# peptide: CKNYWNPCDLIETTC
# modifications: linker 1-8-15 via TBMB
# B27: 06-259 (parent) (peptide)
# peptide: CNTWNPWCGWVGGFC
# modifications: linker 1-8-15 via TBMB
# notes: also called 06-259 (phage clone)
# B28: 06-254-A4 (peptide)
# peptide: CKNYWNPCDLVDTFC
# modifications: linker 1-8-15 via TBMB
# B29: 06-254-C1 (peptide)
# peptide: CKNYWNPCDLIAPYC
# modifications: linker 1-8-15 via TBMB
# B30: 06-254-A7 (peptide)
# peptide: CKNYWNPCDLLHVRC
# modifications: linker 1-8-15 via TBMB
# B31: 06-254-F4 (peptide)
# peptide: CKNYWNPCDLIQDAC
# modifications: linker 1-8-15 via TBMB
# B32: 06-254-G3 (peptide)
# peptide: CKNYWNPCDLIPTGC
# modifications: linker 1-8-15 via TBMB
# B33: 06-254-E2 (peptide)
# peptide: CKNYWNPCDLIWTDC
# modifications: linker 1-8-15 via TBMB
# B34: 06-254-D3 (peptide)
# peptide: CKNFWNPCDLIPISC
# modifications: linker 1-8-15 via TBMB
# B35: 06-254-D1 (peptide)
# peptide: CKNYWNPCDLIRPPC
# modifications: linker 1-8-15 via TBMB
# B36: 06-254-H4 (peptide)
# peptide: CKNYWNPCDLVQIHC
# modifications: linker 1-8-15 via TBMB
# B37: 06-259-H3 (peptide)
# peptide: CNHWNPWCSDDPYIC
# modifications: linker 1-8-15 via TBMB
# B38: 06-259-A6 (peptide)
# peptide: CNYWNPWCSDTRIGC
# modifications: linker 1-8-15 via TBMB
# B39: 06-254-B3 (peptide)
# peptide: CKNYWNPCDLISIKC
# modifications: linker 1-8-15 via TBMB
# B40: 06-254-01 (peptide)
# peptide: ACKNYWNPCDLIETTCA-NH2
# modifications: linker 2-9-16 via TBMB; N-terminus assumed
# SMILES: CC[C@H](C)[C@@H]1NC(=O)[C@H](CC(C)C)NC(=O)[C@H](CC(=O)O)NC(=O)[C@@H]2CSCc3cc(cc(c3)CSC[C@@H](C(=O)N[C@@H](C)C(N)=O)NC(=O)[C@H]([C@@H](C)O)NC(=O)[C@H]([C@@H](C)O)NC(=O)[C@H](CCC(=O)O)NC1=O)CSC[C@H](NC(=O)[C@H](C)N)C(=O)N[C@@H](CCCCN)C(=O)N[C@@H](CC(N)=O)C(=O)N[C@@H](Cc1ccc(O)cc1)C(=O)N[C@@H](Cc1c[nH]c3ccccc13)C(=O)N[C@@H](CC(N)=O)C(=O)N1CCC[C@H]1C(=O)N2
# notes: Synthetic bicyclic peptide, 6 x 6, made on Rink amide resin
# Target: T1, human plasma kallikrein (human, UniProt P03952 20-638)
# T1 construct: Enzyme used in the Ki assays; also called human kallikrein; PK
# Assay: enzyme inhibition assay, fluorogenic substrate Z-PheArg-AMC
# Procedure: (§1) Functional enzyme assays were conducted in 10 mM Tris HCl, 150 mM NaCl, 10 mM MgCl₂, 1 mM CaCl₂ and 1 mg/mL BSA (all Sigma UK) pH 7.4 at 25° C. in solid black 96 or 384 well plates. […] Release of AMC was measured using a Pherastar FS (BMG Labtech), excitation 360 nm, emission 460 nm. The rate of the linear phase of the reaction, typically 5 to 45 minutes, was calculated in MARS data analysis software (BMG labtech). The rate was then used to calculate the IC₅₀ and Kᵢ in Prism (GraphPad). A four parameter inhibition non-linear regression equation was used to calculate the IC₅₀. The One site-fit Kᵢ equation used to calculate the Kᵢ, constraining the Kᵢ to the Kₘ for the substrate which is 150 μM for the human enzyme, and 200 μM for the rat orthologue. All Kᵢ/IC₅₀ values are the mean of at least two independent experiments, and at least three for peptides with Kᵢ values lower than 1 nM. For rabbit kallikrein, between 7 to 14 pM enzyme was employed, with 33 μM substrate with a Kₘ of 50 μM.
# T1 sequence (P03952 20-638 limits assumed): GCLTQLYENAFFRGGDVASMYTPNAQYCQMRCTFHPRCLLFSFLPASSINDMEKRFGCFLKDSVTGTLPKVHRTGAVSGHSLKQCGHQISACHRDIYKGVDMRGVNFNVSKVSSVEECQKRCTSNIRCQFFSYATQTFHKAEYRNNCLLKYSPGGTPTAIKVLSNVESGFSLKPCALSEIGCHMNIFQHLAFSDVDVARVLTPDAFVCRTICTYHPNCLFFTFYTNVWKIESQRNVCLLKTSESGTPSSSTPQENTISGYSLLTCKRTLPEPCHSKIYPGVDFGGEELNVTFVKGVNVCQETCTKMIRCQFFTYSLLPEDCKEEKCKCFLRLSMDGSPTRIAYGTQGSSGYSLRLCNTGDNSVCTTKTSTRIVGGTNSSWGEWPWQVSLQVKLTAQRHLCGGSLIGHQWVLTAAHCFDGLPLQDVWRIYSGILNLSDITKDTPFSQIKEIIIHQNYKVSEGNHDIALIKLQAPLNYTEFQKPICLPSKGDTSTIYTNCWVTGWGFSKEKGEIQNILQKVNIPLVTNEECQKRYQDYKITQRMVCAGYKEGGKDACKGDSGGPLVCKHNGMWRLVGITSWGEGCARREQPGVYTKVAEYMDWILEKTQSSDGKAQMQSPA
row,Binder,Ki
1,B1,53 nM
2,B2,5.9 nM
3,B3,1.8 nM
4,B4,0.5 nM
5,B5,2.66 nM

# Target: T2, rat plasma kallikrein (rat, UniProt P14272 391-638)
# T2 construct: domain: catalytic domain; Expressed and purified in house; also called rat kallikrein; rPK
# Assay: as above
# Procedure: as §1
# T2 sequence (P14272 391-638 limits assumed): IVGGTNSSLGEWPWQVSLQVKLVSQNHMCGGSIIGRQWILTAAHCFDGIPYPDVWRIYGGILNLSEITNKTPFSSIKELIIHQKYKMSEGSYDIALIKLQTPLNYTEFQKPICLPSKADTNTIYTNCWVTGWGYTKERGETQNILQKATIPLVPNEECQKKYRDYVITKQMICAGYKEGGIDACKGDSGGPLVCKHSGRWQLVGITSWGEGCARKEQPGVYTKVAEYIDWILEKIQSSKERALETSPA
row,Binder,Ki
1,B2,3.8 nM
2,B3,25 nM
3,B4,5.6 nM

# Target: T3, biotinylated human plasma kallikrein (human, UniProt P03952 20-638, biotinylated (sites not given))
# T3 construct: mature; also called biotinylated hPK; biotinylated human kallikrein
# Assay: homogeneous plate-based binding assay, TBMB-cyclised phage on biotinylated human plasma kallikrein
# Procedure: Assay of binding of individual clones: Library transformant colonies, or selection output colonies, were picked and grown as individual cultures in 2TY broth containing selective antibiotic. The picked colonies were DNA-sequenced using a QIAgen PyroMark Q96 DNA sequencer to reveal the amino-acid substitution present in each clone, and were assayed for human plasma kallikrein binding as follows. The phage-containing supernatant was harvested from the culture and phage were cyclised with tris-bromomethylbenzene (TBMB) based on the methods of Heinis et al (Nature Chemical Biology vol. 5 pp 502-507 (2009)). The purified phage from this process were assayed for binding to biotinylated human plasma kallikrein using a homogeneous plate-based binding assay; assay read-out measured on a BMG Labtech Pherastar FS plate reader. The quantitative binding data from duplicate assay samples was averaged (mean) and expressed as signal:background. Assay data shown is representative of at least 2 independent experiments. The assay data was correlated with the peptide sequences.
# T3 sequence (P03952 20-638 limits assumed): as the sequence (P03952 20-638 limits assumed) above
row,Binder,S:B (signal:background)
1,B6,30.2
2,B7,33.6
3,B8,22.7
4,B9,46.3
5,B10,46.6
6,B11,49.8
7,B12,38
8,B13,38.7
9,B14,25.2
10,B15,24.4
11,B16,9.99
12,B17,51.7
13,B18,33.1
14,B19,29.7
15,B20,23.5
16,B21,37.7
17,B22,38

row,Binder,S:B (signal:background)
1,B23,23.5
2,B24,56.7
3,B25,43.5
4,B26,61.9
5,B27,1.17
6,B28,32.4
7,B29,27.4
8,B30,26.1
9,B31,46.4
10,B32,37.5
11,B33,31.4
12,B34,20.3
13,B35,33.6
14,B36,38.9
15,B37,38.7
16,B38,22.6
17,B39,61.6

# Target: T1, human plasma kallikrein
# Assay: enzyme inhibition assay, fluorogenic substrate Z-PheArg-AMC
# Remark: another data set of the same source
# Procedure: as §1
row,Binder,Ki
1,B40,1 nM

# Target: T2, rat plasma kallikrein
# Assay: as above
# Remark: another data set of the same source
# Procedure: as §1
row,Binder,Ki
1,B40,15.9 nM
